Experiment in all cases: EMSA
For orientation: In EMSA bound probe runs differently from free probe, usually more slowly.

For series [1], the system named is Mouse IgG1 monoclonal antibody (including anti-streptavidin) (Mus musculus). As to conditions: T = 5-ethynyldeoxyuridine clicked with sulfo-HSAB (NHS ester); for EC50: half-maximal covalent binding (estimate), Kd not determinable; for binding signal (% bound fraction): maximum covalent binding fraction.
Series [2] concerns Mouse IgG2a (Mus musculus). The settings on record: T = 5-ethynyldeoxyuridine clicked with sulfo-HSAB (NHS ester), covalent binding fraction.
Series [3] has as its system Mouse IgG2b (Mus musculus). As to conditions: T = 5-ethynyldeoxyuridine clicked with sulfo-HSAB (NHS ester), covalent binding fraction.
[4] abbreviates: core of consensus SEQ:22, flanks not given.
[5] abbreviates: core of consensus SEQ:23, flanks not given.

By EC50 is commonly meant the concentration giving half of the maximal effect. As for AGCGCGGAACCGTGCCTGGC [Fc clone 1], in series [1] (core of consensus SEQ:22, flanks not given, Cu(II) dependent), the EC50 was under 10 nM. The binding signal (% bound fraction) in series [1] (setting [4]) amounted to 40; in series [2] (setting [4]), 40; in series [3] (setting [4]), 10.
Turning to TAACGCARTAAGCGAG [Fc clone 2], in series [1] (setting [5]), the EC50 was under 10 nM. Moreover, the results for the binding signal (% bound fraction) in series [1] (setting [5]), in series [2] (setting [5]) and in series [3] (setting [5]) were 20, 20 and 2, respectively.

The values above are taken from US20210395742.
